Source: article PMC12263834, “Structural basis of Fanconi anemia pathway activation by FANCM”

T1: FANCM-CTD;FAAP24 (human?;human?, UniProt Q8IYD8;Q9BTP7 1799-2048;1-215, |)
T1 sequence 1: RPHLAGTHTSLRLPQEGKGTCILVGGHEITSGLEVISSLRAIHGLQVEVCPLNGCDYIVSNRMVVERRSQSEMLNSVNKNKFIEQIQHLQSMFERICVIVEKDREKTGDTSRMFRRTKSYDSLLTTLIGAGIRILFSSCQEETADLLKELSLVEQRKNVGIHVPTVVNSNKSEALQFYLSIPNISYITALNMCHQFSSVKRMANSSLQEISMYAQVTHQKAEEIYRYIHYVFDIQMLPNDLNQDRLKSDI
T1 sequence 2: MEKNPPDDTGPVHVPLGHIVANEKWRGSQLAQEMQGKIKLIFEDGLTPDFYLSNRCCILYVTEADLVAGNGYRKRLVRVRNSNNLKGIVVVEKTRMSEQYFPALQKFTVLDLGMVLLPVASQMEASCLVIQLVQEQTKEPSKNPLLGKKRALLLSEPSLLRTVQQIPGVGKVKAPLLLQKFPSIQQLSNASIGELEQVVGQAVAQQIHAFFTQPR

T2: FANCM translocase domain (8HIS-FANCM 73-644) (human, UniProt Q8IYD8 73-644)
T2 sequence: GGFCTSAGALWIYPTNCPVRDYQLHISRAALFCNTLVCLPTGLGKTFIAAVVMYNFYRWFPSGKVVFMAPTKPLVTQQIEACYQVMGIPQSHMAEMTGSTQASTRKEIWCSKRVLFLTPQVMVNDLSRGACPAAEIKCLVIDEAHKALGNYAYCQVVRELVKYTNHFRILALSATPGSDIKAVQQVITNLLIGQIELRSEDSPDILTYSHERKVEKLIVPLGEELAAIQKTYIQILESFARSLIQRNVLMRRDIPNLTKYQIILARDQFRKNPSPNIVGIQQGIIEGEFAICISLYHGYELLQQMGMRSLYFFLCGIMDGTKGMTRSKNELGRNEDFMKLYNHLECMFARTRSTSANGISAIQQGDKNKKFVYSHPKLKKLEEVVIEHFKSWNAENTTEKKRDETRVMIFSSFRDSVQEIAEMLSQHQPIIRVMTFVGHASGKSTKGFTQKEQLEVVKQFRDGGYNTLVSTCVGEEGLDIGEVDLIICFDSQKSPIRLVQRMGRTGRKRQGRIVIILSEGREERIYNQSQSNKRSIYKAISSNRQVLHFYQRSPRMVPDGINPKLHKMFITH


Experiments:
[1] = biological target: FANCA (FA core complex component, in cells) [human (endogenous in HCT116 or HEK293 cells)]; assay: co-immunoprecipitation (quantified Western blot); details: cell-based; n = 3 independent co-immunoprecipitation experiments; parent: 100; read off a plot
[2] = biological target: FANCE (FA core complex component, in cells) [human (endogenous in HCT116 or HEK293 cells)]; assay: co-immunoprecipitation (quantified Western blot); details: cell-based; n = 3 independent co-immunoprecipitation experiments; parent: 100; read off a plot
FANCM-CTD;FAAP24 = biological target: T1, FANCM-CTD;FAAP24; assay: crystal structure (2.4 A); Mg2+ site in FAAP24; duplex contacted, splayed arms disordered; Fluorescence anisotropy: 25 mM Tris-HCl pH 8, 20 mM NaCl, 2 mM MnCl2, 0.1 mg/ml BSA, temperature not stated; crystals N-terminal domain: 0.2 M NaCl, 0.1 M HEPES pH 7.0, 32.5% PEG 400, room temperature; CTD: 25% PEG3350, 0.1 M diammonium hydrogen phosphate; details: protein: recombinant;recombinant; tags: GST (PreScission cleaved);HIS; copies: 1;1; 17 bp duplex with splayed arms: 3' TTTT on SA1 and 5' TTTT on SA2 at the same end
[3] = biological target: T2, FANCM translocase domain (8HIS-FANCM …); assay: crystal structure (2.2 A); 5 mM MgCl2 in protein buffer; Fluorescence anisotropy: 25 mM Tris-HCl pH 8, 20 mM NaCl, 2 mM MnCl2, 0.1 mg/ml BSA, temperature not stated; crystals N-terminal domain: 0.2 M NaCl, 0.1 M HEPES pH 7.0, 32.5% PEG 400, room temperature; CTD: 25% PEG3350, 0.1 M diammonium hydrogen phosphate; details: protein: recombinant; tags: 8xHis N-terminal; hairpin, 14 bp stem, TTAG loop, 11 nt 3' flap

percent of parent (% of wild-type FANCM) [1] | percent of parent (% of wild-type FANCM) [2] | Molecule | further results
14 |  | Flag-FANCM-wildtype (expressed in cells) mutant P999L [human] / FANCA (FA core complex component, in cells) [human (endogenous in HCT116 or HEK293 cells)] chain 1 P999L | 
 | 10 | Flag-FANCM-wildtype (expressed in cells) mutant P999L [human] / FANCE (FA core complex component, in cells) [human (endogenous in HCT116 or HEK293 cells)] chain 1 P999L | 
40 |  | Flag-FANCM-wildtype (expressed in cells) mutant V990A [human] / FANCA (FA core complex component, in cells) [human (endogenous in HCT116 or HEK293 cells)] chain 1 V990A | 
 | 27 | Flag-FANCM-wildtype (expressed in cells) mutant V990A [human] / FANCE (FA core complex component, in cells) [human (endogenous in HCT116 or HEK293 cells)] chain 1 V990A | 
 |  | SA1/SA2 splayed duplex (dsDNA) DNA 1: TACGCATCATCGCTCGGTTTT DNA 2: TTTTCCGAGCGATGATGCGTA | binding result (FANCM-CTD;FAAP24): binds
 |  | GGTATGAGCACTGCTTAGGCAGTGCTCATACCGCATGGAGCTG (structured_DNA) [Hairpin15 (3' flap hairpin)] | binding result [3]: binds
